Data reported in patent publication US20070169210A1 (EMORY UNIVERSITY, published 2007).
One block for each molecule: values may come before it.

Assays:
[1] = target: zona pellucida of unfertilized (ovulated) oocytes; test: cell-based or functional assay
[2] = target: SED1, endogenous, of mouse sperm and male reproductive tract (mouse) (UniProt P21956); test: cell-based or functional assay
[3] = target: T1, SED1 expressed in COS-7 cells (SED1-COS), on secreted membrane vesicles (mouse, UniProt P21956 23-463); test: blot overlay, zona glycoproteins resolved under reducing conditions, detected with anti-SED1
T1 construct: Cloned into pcDNA3.1 D/V5-His-Topo; Used as SED1-enriched membrane vesicles released by COS-7 cells; also called COS-expressed SED1
T1 sequence: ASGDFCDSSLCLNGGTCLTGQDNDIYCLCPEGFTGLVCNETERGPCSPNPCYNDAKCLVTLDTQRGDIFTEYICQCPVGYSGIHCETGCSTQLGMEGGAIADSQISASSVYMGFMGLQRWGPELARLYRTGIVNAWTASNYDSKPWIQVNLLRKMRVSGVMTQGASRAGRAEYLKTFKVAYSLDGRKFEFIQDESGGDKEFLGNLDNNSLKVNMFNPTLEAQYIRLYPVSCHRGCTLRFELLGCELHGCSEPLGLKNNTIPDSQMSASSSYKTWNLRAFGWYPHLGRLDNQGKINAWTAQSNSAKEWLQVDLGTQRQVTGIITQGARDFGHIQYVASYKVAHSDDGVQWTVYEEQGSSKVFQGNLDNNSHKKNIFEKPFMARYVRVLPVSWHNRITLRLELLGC
Experimental: (§1) The purification of zona pellucida glycoproteins was done as published elsewhere (Miller et al., 1992). The proteins were resolved on 10% polyacrylamide gels and transferred onto Immobilon-P membranes (Millipore) as above. The membranes were blocked in TBST containing 2% BSA for 1 hr at 25° C. Subsequently, membranes were incubated with either (His)₆-SED1, biotinylated (His)₆-SED1, SED1 prepared from COS-7 cells, or biotinylated WGA-lectin (positive control) for 1 hr at 25° C. and washed three times for 10 min in TBST, followed by incubation with either rabbit anti-SED1 and goat anti-rabbit-HRP, or Streptavidin-HRP (Zymed). The membranes were washed, developed, and exposed to film as above.
To determine which of the three zona glycoproteins could serve as the putative ligand for SED1, […]. When zona glycoproteins were resolved under reducing conditions, SED1 bound to glycoproteins comigrating as ZP1/ZP2 as well as ZP3 (FIG. 3D). Similar results were achieved using either biotinylated (His)₆-SED1 (D-SED1) detected by Streptavidin-HRP/ECL or recombinant (His)₆-SED1 (rSED1) detected by rabbit-anti-SED1 IgG and HRP-conjugated secondary antibodies (FIG. 3D). […]

[4] = target: T2, ZP1 zona pellucida glycoprotein (murine, UniProt Q62005 21-546); test: blot overlay of zona glycoproteins resolved under nonreducing conditions, biotinylated (His)6-SED1, streptavidin-HRP
T2 construct: Native glycoprotein on a blot, non-reducing conditions
T2 sequence (looked up): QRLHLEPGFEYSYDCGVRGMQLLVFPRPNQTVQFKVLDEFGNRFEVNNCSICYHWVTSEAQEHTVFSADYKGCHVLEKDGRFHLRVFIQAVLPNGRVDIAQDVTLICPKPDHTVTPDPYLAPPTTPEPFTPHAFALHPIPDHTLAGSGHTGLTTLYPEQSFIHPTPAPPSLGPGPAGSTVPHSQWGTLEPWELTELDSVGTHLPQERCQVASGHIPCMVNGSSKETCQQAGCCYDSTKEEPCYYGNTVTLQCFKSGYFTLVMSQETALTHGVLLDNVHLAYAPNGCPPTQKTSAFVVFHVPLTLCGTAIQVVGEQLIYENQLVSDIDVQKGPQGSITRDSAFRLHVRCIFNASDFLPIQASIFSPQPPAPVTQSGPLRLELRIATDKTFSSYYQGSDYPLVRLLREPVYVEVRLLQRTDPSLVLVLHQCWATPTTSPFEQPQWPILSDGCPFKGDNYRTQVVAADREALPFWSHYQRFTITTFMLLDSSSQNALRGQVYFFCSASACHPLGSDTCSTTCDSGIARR
Experimental: as §1

Molecule: (His)6-SED1 truncated fusion protein EEC (both EGF repeats, one discoidin/C domain)
- binding of GalT I null sperm to the zona, % of control (% of control at 3.8 µg/ml) [1]: 21

B2: (His)6-SED1 fusion protein (full-length recombinant mouse SED1 expressed in E. coli) (other)
chain: HHHHHHASGDFCDSSLCLNGGTCLTGQDNDIYCLCPEGFTGLVCNETERGPCSPNPCYNDAKCLVTLDTQRGDIFTEYICQCPVGYSGIHCETGCSTQLGMEGGAIADSQISASSVYMGFMGLQRWGPELARLYRTGIVNAWTASNYDSKPWIQVNLLRKMRVSGVMTQGASRAGRAEYLKTFKVAYSLDGRKFEFIQDESGGDKEFLGNLDNNSLKVNMFNPTLEAQYIRLYPVSCHRGCTLRFELLGCELHGCSEPLGLKNNTIPDSQMSASSSYKTWNLRAFGWYPHLGRLDNQGKINAWTAQSNSAKEWLQVDLGTQRQVTGIITQGARDFGHIQYVASYKVAHSDDGVQWTVYEEQGSSKVFQGNLDNNSHKKNIFEKPFMARYVRVLPVSWHNRITLRLELLGC
modifications: biotinylated with Sulfo-NHS-LC-LC-Biotin in the bead assays and in the streptavidin-detected blot overlays
notes: also called rSED1; recombinant SED1
- binding result [4]: no binding
- binding of GalT I null sperm to the zona, % of control (% of control at 6 µg/ml) [1]: 27

Continued, values first:

- binding of GalT I null sperm to the zona, % of control (% of control binding at 200 µg/ml) [2]: 91
Molecule: preimmune rabbit serum / preimmune IgG (antibody)

- binding result [3]: binds
B1: ZP3 zona pellucida glycoprotein (other, murine, UniProt P10761 23-351, looked up)
chain: QTLWLLPGGTPTPVGSSSPVKVECLEAELVVTVSRDLFGTGKLVQPGDLTLGSEGCQPRVSVDTDVVRFNAQLHECSSRVQMTKDALVYSTFLLHDPRPVSGLSILRTNRVEVPIECRYPRQGNVSSHPIQPTWVPFRATVSSEEKLAFSLRLMEENWNTEKSAPTFHLGEVAHLQAEVQTGSHLPLQLFVDHCVATPSPLPDPNSSPYHFIVDFHGCLVDGLSESFSAFQVPRPRPETLQFTVDVFHFANSSRNTLYITCHLKVAPANQIPDKLNKACSFNKTSQSWLPVEGDADICDCCSHGNCSNSSSSQFQIHGPRQWSKLVSRN
notes: Native glycoprotein on a blot, reducing and non-reducing conditions

- sperm bound per egg, SED1 null sperm [1]: 1.45 sperm/egg
- sperm bound per egg, wild-type sperm [1]: 11.2 sperm/egg
B3: SED1, endogenous, of mouse sperm and male reproductive tract (protein)
chain: T1 sequence
